According to patent publication US11504441B2, “Radiolabeled compounds targeting the prostate-specific membrane antigen” (PROVINCIAL HEALTH SERVICES AUTHORITY, priority 2019, dated 2022):

Assay: in vivo
Design: species or system mice
Conditions: male, NODSCID 1L2RγKO, mouse, iv, total radioactivity

O=C(O)CCC[C@H](NC(=O)N[C@@H](CCCCNC(=O)[C@H](Cc1c2ccccc2cc2ccccc12)NC(=O)[C@H]1CC[C@H](CNC(=O)CN2CCN(CC(=O)O)CCN(CC(=O)O)CCN(CC(=O)O)CC2)CC1)C(=O)O)C(=O)O [177Lu-HTK03149, metal not drawn]
tissue uptake at 1 h (Adrenal glands uptake): 0.35 ± 0.07 %ID/g | tissue uptake at 4 h (Adrenal glands uptake): 0.08 ± 0.01 %ID/g | tissue uptake at 24 h (Adrenal glands uptake): 0.07 ± 0.02 %ID/g | tissue uptake at 72 h (Adrenal glands uptake): 0.12 ± 0.05 %ID/g | tissue uptake at 120 h (Adrenal glands uptake): 0.02 ± 0.03 %ID/g | tissue uptake at 1 h (Blood uptake): 0.88 ± 0.07 %ID/g | tissue uptake at 4 h (Blood uptake): 0.17 ± 0.03 %ID/g | tissue uptake at 24 h (Blood uptake): 0.12 ± 0.01 %ID/g | tissue uptake at 72 h (Blood uptake): 0.07 ± 0.02 %ID/g | tissue uptake at 120 h (Blood uptake): 0.02 ± 0.01 %ID/g | tissue uptake at 1 h (Bone uptake): 0.07 ± 0.02 %ID/g | tissue uptake at 4 h (Bone uptake): 0.02 ± 0.01 %ID/g | tissue uptake at 24 h (Bone uptake): 0.03 %ID/g | tissue uptake at 72 h (Bone uptake): 0.03 ± 0.01 %ID/g | tissue uptake at 120 h (Bone uptake): 0.01 ± 0.01 %ID/g | tissue uptake at 1 h (Brain uptake): 0.02 %ID/g | tissue uptake at 4 h (Brain uptake): 0.01 %ID/g | tissue uptake at 24 h (Brain uptake): 0.01 %ID/g | tissue uptake at 1 h (Fat uptake): 0.14 ± 0.05 %ID/g | tissue uptake at 4 h (Fat uptake): 0.02 %ID/g | tissue uptake at 24 h (Fat uptake): 0.02 %ID/g | tissue uptake at 72 h (Fat uptake): 0.04 ± 0.04 %ID/g | tissue uptake at 120 h (Fat uptake): 0.01 ± 0.01 %ID/g | tissue uptake at 1 h (Heart uptake): 0.28 ± 0.04 %ID/g | tissue uptake at 4 h (Heart uptake): 0.07 ± 0.01 %ID/g | tissue uptake at 24 h (Heart uptake): 0.06 %ID/g | tissue uptake at 72 h (Heart uptake): 0.06 ± 0.01 %ID/g | tissue uptake at 120 h (Heart uptake): 0.03 ± 0.01 %ID/g | tissue uptake at 1 h (Intestine uptake): 0.27 ± 0.06 %ID/g | tissue uptake at 4 h (Intestine uptake): 0.19 ± 0.07 %ID/g | tissue uptake at 24 h (Intestine uptake): 0.09 ± 0.05 %ID/g | tissue uptake at 72 h (Intestine uptake): 0.09 ± 0.03 %ID/g | tissue uptake at 120 h (Intestine uptake): 0.31 ± 0.48 %ID/g | tissue uptake at 1 h (Kidneys uptake): 7.67 ± 1.35 %ID/g | tissue uptake at 4 h (Kidneys uptake): 1.67 ± 0.38 %ID/g | tissue uptake at 24 h (Kidneys uptake): 0.6 ± 0.11 %ID/g | tissue uptake at 72 h (Kidneys uptake): 0.68 ± 0.39 %ID/g | tissue uptake at 120 h (Kidneys uptake): 0.28 ± 0.06 %ID/g | tissue uptake at 1 h (Lacrimal uptake): 0.02 ± 0.01 %ID/g | tissue uptake at 4 h (Lacrimal uptake): 0.03 ± 0.01 %ID/g | tissue uptake at 72 h (Lacrimal uptake): 0.01 ± 0.01 %ID/g | tissue uptake at 1 h (Liver uptake): 0.26 ± 0.03 %ID/g | tissue uptake at 4 h (Liver uptake): 0.11 ± 0.01 %ID/g | tissue uptake at 24 h (Liver uptake): 0.1 ± 0.01 %ID/g | tissue uptake at 72 h (Liver uptake): 0.13 ± 0.03 %ID/g | tissue uptake at 120 h (Liver uptake): 0.08 ± 0.04 %ID/g | tissue uptake at 1 h (Lungs uptake): 0.72 ± 0.06 %ID/g | tissue uptake at 4 h (Lungs uptake): 0.17 ± 0.01 %ID/g | tissue uptake at 24 h (Lungs uptake): 0.12 ± 0.01 %ID/g | tissue uptake at 72 h (Lungs uptake): 0.11 ± 0.02 %ID/g | tissue uptake at 120 h (Lungs uptake): 0.09 ± 0.08 %ID/g | tissue uptake at 1 h (Muscle uptake): 0.18 ± 0.14 %ID/g | tissue uptake at 4 h (Muscle uptake): 0.02 ± 0.01 %ID/g | tissue uptake at 24 h (Muscle uptake): 0.02 %ID/g | tissue uptake at 72 h (Muscle uptake): 0.02 %ID/g | tissue uptake at 120 h (Muscle uptake): 0.01 %ID/g | tissue uptake at 1 h (Pancreas uptake): 0.17 ± 0.03 %ID/g | tissue uptake at 4 h (Pancreas uptake): 0.03 %ID/g | tissue uptake at 24 h (Pancreas uptake): 0.03 %ID/g | tissue uptake at 72 h (Pancreas uptake): 0.03 %ID/g | tissue uptake at 120 h (Pancreas uptake): 0.02 ± 0.01 %ID/g | tissue uptake at 1 h (Salivary uptake): 0.23 ± 0.06 %ID/g | tissue uptake at 4 h (Salivary uptake): 0.05 ± 0.01 %ID/g | tissue uptake at 24 h (Salivary uptake): 0.05 ± 0.01 %ID/g | tissue uptake at 72 h (Salivary uptake): 0.05 ± 0.02 %ID/g | tissue uptake at 120 h (Salivary uptake): 0.03 ± 0.01 %ID/g | tissue uptake at 1 h (Seminal uptake): 0.38 ± 0.47 %ID/g | tissue uptake at 4 h (Seminal uptake): 0.04 ± 0.03 %ID/g | tissue uptake at 24 h (Seminal uptake): 0.02 %ID/g | tissue uptake at 72 h (Seminal uptake): 0.03 ± 0.01 %ID/g | tissue uptake at 120 h (Seminal uptake): 0.01 %ID/g | tissue uptake at 1 h (Spleen uptake): 0.26 ± 0.05 %ID/g | tissue uptake at 4 h (Spleen uptake): 0.09 ± 0.02 %ID/g | tissue uptake at 24 h (Spleen uptake): 0.09 ± 0.01 %ID/g | tissue uptake at 72 h (Spleen uptake): 0.14 ± 0.06 %ID/g | tissue uptake at 120 h (Spleen uptake): 0.13 ± 0.08 %ID/g | tissue uptake at 1 h (Stomach uptake): 0.1 ± 0.02 %ID/g | tissue uptake at 4 h (Stomach uptake): 0.05 ± 0.02 %ID/g | tissue uptake at 24 h (Stomach uptake): 0.13 ± 0.11 %ID/g | tissue uptake at 72 h (Stomach uptake): 0.14 ± 0.1 %ID/g | tissue uptake at 120 h (Stomach uptake): 0.24 ± 0.31 %ID/g | tissue uptake at 1 h (Tail uptake): 0.52 ± 0.13 %ID/g | tissue uptake at 4 h (Tail uptake): 0.2 ± 0.14 %ID/g | tissue uptake at 24 h (Tail uptake): 0.14 ± 0.14 %ID/g | tissue uptake at 72 h (Tail uptake): 0.08 ± 0.02 %ID/g | tissue uptake at 120 h (Tail uptake): 0.04 ± 0.01 %ID/g | tissue uptake at 1 h (Testes uptake): 0.26 ± 0.02 %ID/g | tissue uptake at 4 h (Testes uptake): 0.06 %ID/g | tissue uptake at 24 h (Testes uptake): 0.05 %ID/g | tissue uptake at 72 h (Testes uptake): 0.05 ± 0.01 %ID/g | tissue uptake at 120 h (Testes uptake): 0.03 ± 0.01 %ID/g | tissue uptake at 1 h (Thyroid uptake): 0.27 ± 0.02 %ID/g | tissue uptake at 4 h (Thyroid uptake): 0.07 ± 0.01 %ID/g | tissue uptake at 24 h (Thyroid uptake): 0.06 %ID/g | tissue uptake at 72 h (Thyroid uptake): 0.08 ± 0.01 %ID/g | tissue uptake at 120 h (Thyroid uptake): 0.04 ± 0.01 %ID/g | tissue uptake at 1 h (Tumor uptake): 14 ± 2.16 %ID/g | tissue uptake at 4 h (Tumor uptake): 20.9 ± 2.99 %ID/g | tissue uptake at 24 h (Tumor uptake): 13.8 ± 2.88 %ID/g | tissue uptake at 72 h (Tumor uptake): 17.1 ± 4.7 %ID/g | tissue uptake at 120 h (Tumor uptake): 16.4 ± 11 %ID/g
